B1: PDL1-C40-6A7-FV3A1 (IgG1) (bispecific antibody)
heavy: EVQLLESGGGLVQPGGSLRLSCAASGFTFSSYIMMWVRQAPGKGLEWVSSIYPSGGITFYADTVKGRFTISRDNSKNTLYLQMNSLRAEDTAVYYCARIKLGTVTTVDYWGQGTLVTVSSASTKGPSVFPLAPSSKSTSGGTAALGCLVKDYFPEPVTVSWNSGALTSGVHTFPAVLQSSGLYSLSSVVTVPSSSLGTQTYICNVNHKPSNTKVDKKVEPKSCDKTHTCPPCPAPELLGGPSVFLFPPKPKDTLMISRTPEVTCVVVDVSHEDPEVKFNWYVDGVEVHNAKTKPREEQYNSTYRVVSVLTVLHQDWLNGKEYKCKVSNKALPAPIEKTISKAKGQPREPQVYTLPPSRDELGGGGSGGGGSDVVMTQSPLSLPVTLGQPASISCRSSQSLLHSNGNTYLHWYQQRPGQSPNHLIYQVSNRFSGVPDRFSGSGSGTDFTLKISRVEAEDVGVYFCSQTTHVPWTFGCGTKVEIKGGGGSGGGGSGGGGSGGGGSQVQLVQSGAEVKKPGASVKLSCKASGYTFISYYIYWVKQAPGQCLEWIGGINPRNGGTNFNEKFKSRATLTVDTSISTAYMELSRLRSEDTAVYYCTRHGNGVYWGQGTTLTVSSGGGGSGGGGSTKNQVSLTCLVKGFYPSDIAVEWESNGQPENNYKTTPPVLDSDGSFFLYSKLTVDKSRWQQGNVFSCSVMHEALHNHYTQKSLSLSPGK
light: QSALTQPASVSGSPGQSITISCTGTSSDVGGYNYVSWYQQHPGKAPKLMIYDVSNRPSGVSNRFSGSKSGNTASLTISGLQAEDEADYYCSSYTSSSTRVFGTGTKVTVLGQPKANPTVTLFPPSSEELQANKATLVCLISDFYPGAVTVAWKADGSPVKAGVETTKPSKQSNNKYAASSYLSLTPEQWKSHRSYSCQVTHEGSTVEKTVAPTECS
notes: IgG1
B2: PDL1-C40-6A7-FV3A3 (IgG1) (bispecific antibody)
heavy: EVQLLESGGGLVQPGGSLRLSCAASGFTFSSYIMMWVRQAPGKGLEWVSSIYPSGGITFYADTVKGRFTISRDNSKNTLYLQMNSLRAEDTAVYYCARIKLGTVTTVDYWGQGTLVTVSSASTKGPSVFPLAPSSKSTSGGTAALGCLVKDYFPEPVTVSWNSGALTSGVHTFPAVLQSSGLYSLSSVVTVPSSSLGTQTYICNVNHKPSNTKVDKKVEPKSCDKTHTCPPCPAPELLGGPSVFLFPPKPKDTLMISRTPEVTCVVVDVSHEDPEVKFNWYVDGVEVHNAKTKPREEQYNSTYRVVSVLTVLHQDWLNGKEYKCKVSNKALPAPIEKTISKAKGQPREPQVYTLPPSRDELTKGGGGSGGGGSDVVMTQSPLSLPVTLGQPASISCRSSQSLLHSNGNTYLHWYQQRPGQSPNHLIYQVSNRFSGVPDRFSGSGSGTDFTLKISRVEAEDVGVYFCSQTTHVPWTFGCGTKVEIKGGGGSGGGGSGGGGSGGGGSQVQLVQSGAEVKKPGASVKLSCKASGYTFISYYIYWVKQAPGQCLEWIGGINPRNGGTNFNEKFKSRATLTVDTSISTAYMELSRLRSEDTAVYYCTRHGNGVYWGQGTTLTVSSGGGGSGGGGSNQVSLTCLVKGFYPSDIAVEWESNGQPENNYKTTPPVLDSDGSFFLYSKLTVDKSRWQQGNVFSCSVMHEALHNHYTQKSLSLSPGK
light: B1 light
notes: IgG1; scFv inserted between EU 360 and 361
B3: PDL1-C40-6A7-FV3A2 (IgG1) (bispecific antibody)
heavy: EVQLLESGGGLVQPGGSLRLSCAASGFTFSSYIMMWVRQAPGKGLEWVSSIYPSGGITFYADTVKGRFTISRDNSKNTLYLQMNSLRAEDTAVYYCARIKLGTVTTVDYWGQGTLVTVSSASTKGPSVFPLAPSSKSTSGGTAALGCLVKDYFPEPVTVSWNSGALTSGVHTFPAVLQSSGLYSLSSVVTVPSSSLGTQTYICNVNHKPSNTKVDKKVEPKSCDKTHTCPPCPAPELLGGPSVFLFPPKPKDTLMISRTPEVTCVVVDVSHEDPEVKFNWYVDGVEVHNAKTKPREEQYNSTYRVVSVLTVLHQDWLNGKEYKCKVSNKALPAPIEKTISKAKGQPREPQVYTLPPSRDELTGGGGSGGGGSDVVMTQSPLSLPVTLGQPASISCRSSQSLLHSNGNTYLHWYQQRPGQSPNHLIYQVSNRFSGVPDRFSGSGSGTDFTLKISRVEAEDVGVYFCSQTTHVPWTFGCGTKVEIKGGGGSGGGGSGGGGSGGGGSQVQLVQSGAEVKKPGASVKLSCKASGYTFISYYIYWVKQAPGQCLEWIGGINPRNGGTNFNEKFKSRATLTVDTSISTAYMELSRLRSEDTAVYYCTRHGNGVYWGQGTTLTVSSGGGGSGGGGSKNQVSLTCLVKGFYPSDIAVEWESNGQPENNYKTTPPVLDSDGSFFLYSKLTVDKSRWQQGNVFSCSVMHEALHNHYTQKSLSLSPGK
light: B1 light
notes: IgG1; scFv inserted between EU 359 and 360
B4: PDL1-C40-6A7-FV3C (IgG1) (bispecific antibody)
heavy: EVQLLESGGGLVQPGGSLRLSCAASGFTFSSYIMMWVRQAPGKGLEWVSSIYPSGGITFYADTVKGRFTISRDNSKNTLYLQMNSLRAEDTAVYYCARIKLGTVTTVDYWGQGTLVTVSSASTKGPSVFPLAPSSKSTSGGTAALGCLVKDYFPEPVTVSWNSGALTSGVHTFPAVLQSSGLYSLSSVVTVPSSSLGTQTYICNVNHKPSNTKVDKKVEPKSCDKTHTCPPCPAPELLGGPSVFLFPPKPKDTLMISRTPEVTCVVVDVSHEDPEVKFNWYVDGVEVHNAKTKPREEQYNSTYRVVSVLTVLHQDWLNGKEYKCKVSNKALPAPIEKTISKAKGQPREPQVYTLPPSRDELTKNQVSLTCLVKGFYPSDIAVEWESNGGGGSGGGGSDVVMTQSPLSLPVTLGQPASISCRSSQSLLHSNGNTYLHWYQQRPGQSPNHLIYQVSNRFSGVPDRFSGSGSGTDFTLKISRVEAEDVGVYFCSQTTHVPWTFGCGTKVEIKGGGGSGGGGSGGGGSGGGGSQVQLVQSGAEVKKPGASVKLSCKASGYTFISYYIYWVKQAPGQCLEWIGGINPRNGGTNFNEKFKSRATLTVDTSISTAYMELSRLRSEDTAVYYCTRHGNGVYWGQGTTLTVSSGGGGSGGGGSGQPENNYKTTPPVLDSDGSFFLYSKLTVDKSRWQQGNVFSCSVMHEALHNHYTQKSLSLSPGK
light: B1 light
notes: IgG1; scFv inserted between EU 384 and 385
B5: C40-6A7 (IgG2) (antibody, V domains shown)
VH: QVQLVQSGAEVKKPGASVKLSCKASGYTFISYYIYWVKQAPGQGLEWIGGINPRNGGTNFNEKFKSRATLTVDTSISTAYMELSRLRSEDTAVYYCTRHGNGVYWGQGTTLTVSS
VL: DVVMTQSPLSLPVTLGQPASISCRSSQSLLHSNGNTYLHWYQQRPGQSPNHLIYQVSNRFSGVPDRFSGSGSGTDFTLKISRVEAEDVGVYFCSQTTHVPWTFGGGTKVEIK
notes: IgG2; also called original anti-CD40 monoclonal antibody

Results on 5 molecules are retold here after patent US20240360201A1 (BIOCYTOGEN PHARMACEUTICALS BEIJING, published 2024).

For the assay, the target named is human CD40 (hCD40-his) (human, UniProt P25942 21-193). Put plainly: SPR Biacore T200; binder captured on protein A chip, target as analyte. As for the experimental part: Binding affinity to human CD40 of the obtained fusion proteins PDL1-C40-6A7-FV3A (IgG1), PDL1-C40-6A7-FV3A-IgG4, PDL1-C40-6A7-FV3C (IgG1), PDL1-C40-6A7-FV3A1 (IgG1), PDL1-C40-6A7-FV3A2 (IgG1), and PDL1-C40-6A7-FV3A3 (IgG1) were determined by surface plasmon resonance (SPR) using Biacore™ T200 biosensor equipped with pre-immobilized protein A sensor chips. The original anti-CD40 monoclonal antibody C40-6A7 IgG2 (6A7, VH SEQ ID NO: 91, VL SEQ ID NO: 92), which the scFV was derived from, was used as a control.
human CD40 (hCD40-his), sequence (P25942 21-193 limits assumed): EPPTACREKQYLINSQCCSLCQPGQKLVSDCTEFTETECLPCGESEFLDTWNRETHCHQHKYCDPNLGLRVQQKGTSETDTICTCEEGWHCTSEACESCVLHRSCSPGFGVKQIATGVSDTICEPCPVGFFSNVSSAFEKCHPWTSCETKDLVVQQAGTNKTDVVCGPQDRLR
A general note: Surface plasmon resonance follows binding to a sensor surface in real time, without labels.
By Kd is commonly meant the free concentration of one partner at which half of the binding sites on the other are occupied at equilibrium, for simple one-to-one binding. Read a high Kd as weaker binding. The koff is the rate constant with which the complex falls apart. A high value points to a short-lived complex. In general, kon refers to the rate constant with which the complex forms. Higher therefore signals fast association. B1 returned a dissociation constant Kd of 0.63 nM, a koff of 0.000388 s⁻¹ and an on-rate constant (kon) of 616000 M⁻¹ s⁻¹.
Take B2: the Kd turned out to be 1.04 nM, the koff was determined as 0.000379 s⁻¹ and the association rate constant (kon) came to 364000 M⁻¹ s⁻¹.
Take B3: the equilibrium dissociation constant (Kd) turned out to be 0.847 nM, the dissociation rate constant (koff) was 0.000375 s⁻¹ and the kon was found to be 443000 M⁻¹ s⁻¹.
With B4, the equilibrium dissociation constant (Kd) amounted to 0.865 nM, the koff came out at 0.000472 s⁻¹ and the kon amounted to 546000 M⁻¹ s⁻¹.
For B5 the same measures were 3.09 nM, 0.00171 s⁻¹ and 554000 M⁻¹ s⁻¹.
